Results from publication PMC10338078.

Biological target: Drosophila Deltex WWE2 domain (residues 26-261; Dx1A*) (Drosophila) (UniProt Q23985)
Test: AUC

Chain of UniProt Q23985 (Q23985 26-261): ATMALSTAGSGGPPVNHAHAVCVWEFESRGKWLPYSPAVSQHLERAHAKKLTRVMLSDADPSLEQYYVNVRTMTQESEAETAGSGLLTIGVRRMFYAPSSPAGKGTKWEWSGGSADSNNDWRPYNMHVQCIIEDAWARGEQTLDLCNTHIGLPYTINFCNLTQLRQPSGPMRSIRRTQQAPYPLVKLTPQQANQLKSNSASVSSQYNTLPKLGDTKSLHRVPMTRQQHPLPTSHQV

weight-averaged sedimentation coefficient (sw) of a 45 μM 1:1 mixture: 3.51e-13 s
Substance: Drosophila Notch ANK domain (Nank1-7*) R2007A (from UniProt P07207 1901-2048) (domain or fragment)
